Laboratory results taken from patent publication US20200407462A1 (MINERVA BIOTECHNOLOGIES, published 2020).
Numbering of substitutions follows the chain as printed.

What was measured:
[1] = biological target: T1, PSMGFR peptide (Primary Sequence of the MUC1 Growth Factor Receptor); assay: selection of clones on the immunizing peptide
T1 peptide: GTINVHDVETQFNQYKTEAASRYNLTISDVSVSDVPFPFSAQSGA

[2] = biological target: T2, N-10 peptide (N-10 PSMGFR); assay: ELISA on peptides (FIG. 39)
T2 construct: also called PSMGFR N-10
T2 peptide: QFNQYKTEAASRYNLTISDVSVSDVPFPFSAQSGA
Description: (§1) All monoclonal antibodies were first selected based on their ability to bind to the immunizing peptide. To further elucidate the epitope within that peptide to which the antibody binds, antibodies were tested for their ability to bind to the PSMGFR peptide, the N−10 peptide or the C−10 peptide.

[3] = biological target: T3, C-10 peptide (C-10 PSMGFR); assay: ELISA on peptides
T3 construct: also called PSMGFR C-10
T3 peptide: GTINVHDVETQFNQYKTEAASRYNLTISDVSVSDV

[4] = biological target: T2, N-10 peptide (N-10 PSMGFR); assay: peptide binding, told in text
[5] = biological target: T3, C-10 peptide (C-10 PSMGFR); assay: binding to peptides (ELISA, FIG. 39)
Description: as §1

[6] = biological target: T2, N-10 peptide (N-10 PSMGFR); assay: peptide binding, told in legend
[7] = biological target: T4, PSMGFR N+20/C-27 peptide; assay: selection of clones on the immunizing peptide
T4 construct: also called N+20/C-27 PSMGFR
T4 peptide: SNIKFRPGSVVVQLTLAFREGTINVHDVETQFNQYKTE

[8] = biological target: T5, PSMGFR N+9/C-9 peptide; assay: selection of clones on the immunizing peptide
T5 peptide: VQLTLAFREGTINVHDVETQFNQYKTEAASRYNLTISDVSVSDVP

B1: 18B4 monoclonal anti-MUC1* antibody (antibody, V domains shown)
VH: EVKLEESGGGLVQPGGSMKLSCAASGFTFNDAWMDWVRQSPEKGLEWVAEIRSTANIHTTYYAESVQGRFTISRDDSKSSVYLQMNSLRAEDTGIYYCTPLLYGFAYWGQGTLVTVSA
VL: DVVMTQSPLSLPVSLGDQASISCRTSQSLVHSNGNTYLHWHLQKPGQSPKVLIYKVSSRFSGVPDRFSGSGSGTDFTLKISRVEAEDLGVYFCSQNTHVPYTFGGGTKLEIK
notes: Immunogen PSMGFR peptide; also called Antibody 18B4
- binding result [1]: binds
- binding result [2]: no binding
- binding result [3]: binds

B2: 18G12 monoclonal anti-MUC1* antibody (antibody, V domains shown)
VH: QVQLQQSGAELVKPGASVKLSCKASGYTFTGYFLYWVKQRPGQGLEWIGGINPDNGGIDFNEKFRNKATLTVDKSSSTAYMQLSSLTSEDSAVYYCTLLIGNYWGQGTTLTVSS
VL: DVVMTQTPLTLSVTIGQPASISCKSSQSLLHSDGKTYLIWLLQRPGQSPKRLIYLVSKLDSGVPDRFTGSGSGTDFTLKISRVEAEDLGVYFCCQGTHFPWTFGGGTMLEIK
notes: Immunogen PSMGFR peptide; also called Antibody 18G12
- binding result [1]: binds
- binding result [3]: binds

B3: 28F9 monoclonal anti-MUC1* antibody (antibody, V domains shown)
VH: B2 VH with S7P, K13Q, Q43H, N52H, D54S, G57D, I58T, R65K, K74I, N102V
VL: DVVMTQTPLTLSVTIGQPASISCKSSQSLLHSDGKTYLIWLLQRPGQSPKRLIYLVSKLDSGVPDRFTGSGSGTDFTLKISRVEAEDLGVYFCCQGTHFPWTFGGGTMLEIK
notes: Anti-PSMGFR antibody; also called Antibody 28F9
- binding result [1]: binds
- binding result [3]: binds

B4: 20A10 monoclonal anti-MUC1* antibody (antibody, V domains shown)
VH: EVMLVESGGGLVKPGGSLKLSCAASGFTFSTYAMSWIRQTPEKRLEWVASIGRAGSTYYSDSVKGRFTISRDNVRNILYLQMSSLRSEDTAMYYCARGPIYNDYDEFAYWGQGTLVTVSA
VL: NIMMTQSPSSLAVSAGEKVTMSCKSSQSVLYSSNQKNYLAWYQQKPGQSPKLLIYWASTRESGVPDRFTGSGSGTDFTLTISSVQAEDLAVYYCHQYLSSLTFGAGTKLELK
notes: Immunogen PSMGFR peptide; also called Antibody 20A10
- binding result [1]: binds
- binding result [4]: binds
- binding result [5]: no binding

B5: 25E6 monoclonal anti-MUC1* antibody (antibody, V domains shown)
VH: EVQLVESGGDLVKPGGSLKLSCAASGFTFSSYGMSWVRQTPDKRLEWVATISNGGRHTFYPDSVKGRFTISRDNAKNTLYLQMSSLKSEDTAMYLCVRQTGTEGWFAYWGQGTLVTVSA
VL: not shown
notes: Immunogen PSMGFR peptide; also called Antibody 25E6
- binding result [1]: binds
- binding result [6]: binds

B6: 1E4 monoclonal anti-MUC1* antibody (antibody, V domains shown)
VH: QVQLQQSGAELVRPGSSVKISCKASGYAFSTYWMNWVKQRPGQGLEWIGQIYPGDSDTNYNGKFKGKATLTADKSSNTAYMQLSSLTSEDSAVFFCARGNHASMDYWGQGTSVTVSS
VL: B1 VL with S7T, T25S, H41Y, V51L, S58N, N96K, Y101W
notes: Immunogen PSMGFR N+20/C-27 peptide; also called Antibody 1E4
- binding result [7]: binds

B7: 29H1 monoclonal anti-MUC1* antibody (antibody, V domains shown)
VH: B1 VH with N30S, T54K, N56T, I57N, T59A, Q67K
VL: DVVMTQTPLSLPVSLGDQASISCRSGQSLVHSNGHTYLHWYLQKPGQSPRLLIYKVSNRFSGVPDRFSGSGSRADFTLKISRVEAEDLGVYFCSQTTHVPWTFGGGTKLEIK
notes: Immunogen PSMGFR N+20/C-27 peptide; also called Antibody 29H1
- binding result [7]: binds

B8: 31A1 monoclonal anti-MUC1* antibody (antibody, V domains shown)
VH: QVQLQQSGAELAKPGASVKMSCKASGYTFTSYWMHWVKQRPGQGLEWIGYINPSTGYTEYNQKFKDKATLTADKSSSTAYMQLSSLTSEDSAVYYCARAYIDYWGQGTTLTVSS
VL: DVLMTQTPLSLPVSLGDQASFSCRSSQSIVHSNGNTYLEWYLQKPGQSPKLLIYKVSNRFSGVPDRFSGSGSGTDFTLKINRVEAEDLGVYYCFQVSHFPWTFGGGTKLEIK
notes: Immunogen PSMGFR N+20/C-27 peptide; also called Antibody 31A1
- binding result [7]: binds

B9: 32C1 monoclonal anti-MUC1* antibody (antibody, V domains shown)
VH: EVKLEESGGGLVQSGGSMKLSCVASGFTFSNYWMNWVRQSPEKGLEWVAEIRLKSNNYAIHYAESVKGRFTISRDDSKSSVYLQMNNLRAEDTGIYYCTRVPGLDAYWGQGTLVTVSA
VL: B1 VL with S7T, T25S, H41Y, V51L, S58N, R82S, N96I, K108N
notes: Immunogen PSMGFR N+20/C-27 peptide; also called Antibody 32C1
- binding result [7]: binds

B10: 3C5 monoclonal anti-MUC1* antibody (antibody, V domains shown)
VH: QIQLVQSGPELKKPGETVKISCKASGYTFTNYGMNWVKQAPGKGLKWMGWINTYTGKPTYADDFKGRFAFSLETSASTAYLQINNLKNEDTATYFCARGGLDGYYGYWGQGTTLTVSS
VL: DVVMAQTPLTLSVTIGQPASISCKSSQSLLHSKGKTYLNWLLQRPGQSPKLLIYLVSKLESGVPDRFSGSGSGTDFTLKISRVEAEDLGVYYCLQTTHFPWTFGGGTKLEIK
notes: Immunogen PSMGFR N+9/C-9 peptide; also called Antibody 3C5
- binding result [8]: binds

B11: 39H5 monoclonal anti-MUC1* antibody (antibody, V domains shown)
VH: QIQLVQSGPELKKPGETVKISCKASGYTFTNYGMNWVKQAPGKGLKWMGWINTYTGEPTYVGDFKGRFAFSLETSASTAYLQINNLKNEDTATYFCVRGIHGYVDYWGQGTTLTVSS
VL: B8 VL with F21I, S32R, N81S, V96G, F99L
notes: Immunogen PSMGFR N+9/C-9 peptide; also called Antibody 39H5
- binding result [8]: binds
